According to PMC11847324, “A communication hub for phosphoregulation of kinetochore-microtubule attachment” (Current biology : CB, 2024):
No end group written: not given here. *: point of attachment. BODIPYFLEthylmaleimide = Cc1cc(C)n2c1C=C1C=CC(CCC(=O)NCCN3C(=O)CC(*)C3=O)=[N+]1[B-]2(F)F

Tests used:
Ndc80c^dwarf [1] = assay: Fluorescence polarization competition, reporter Bodipy-FL Mps1(137–171); format: binding, S. cerevisiae; conditions: direct titration (Figure 3A) and competition with Bodipy-FL Mps1(137–171) (Figure 3B)
Excerpt: We measured by fluorescence polarization the affinity of Ndc80^dwarf, a shortened version of Ndc80c[51], for a peptide comprising Mps1 residues 137–171, plus a C-terminal cysteine for labeling. We labeled the peptide with the Bodipy fluorophore and determined fluorescence anisotropy as a function of Ndc80c^dwarf concentration (Figure 3A). We then used unlabeled wild-type and mutant peptides in a competition format, at a fixed Ndc80c^dwarf concentration (Figures 3B,C). The mutant peptides corresponded to mutations characterized in one of the accompanying papers. […] Mutating either the basic residues or the hydrophobic residues in the first part of the consensus motif or the conserved arginine at the end of the second part lowered affinity (raised the Ki) by roughly two logs; mutating both the final arginine and the hydrophobic residues eliminated any detectable competition.
Figure 3. Fluorescence polarization measurements of Ndc80c^dwarf binding peptides from the N-terminal extensions of Mps1 and Ipl1. (A) Polarization of fluorescence from 20 nM Bodipy-FL Mps1(137–171) (Mps1 residues 137–171 plus a C-terminal cysteine modified with Bodipy-FL -- see Methods) and Bodipy-FL Ipl1 (26–39;45–59) as a function of Ndc80c^dwarf concentration. (B) Competition binding experiment: unlabeled competitor peptides (see figure annotation) were added in twofold serial dilutions to Bodipy-FL Mps1(137–171) and Ndc80c^dwarf at final concentrations of 20 nM and 500 nM respectively. Loss of polarization indicates displacement of bound Bodipy-FL Mps1(137–171) by the competitor. (C) As in (B), with competitor Mps1(137–171) peptides containing mutations that reduce affinity for Ndc80c[40]. (D) Polarization of fluorescence from 20 nM Bodipy-FL Mps1(137–171) as a function of the concentration of Ndc80c^dwarf bearing mutations in Nuf2 that interfere with its Mps1 interaction in cells. (E) As in (B), but with 20 nM Bodipy-FL Ipl1 (26–39;45–59) as the fluorescent reporter and 27μM Ndc80c^dwarf. […] For the Ipl1 peptide, the second copy of the motif, not used for the fluorescence polarization experiments, is shown in the bottom line.
Mps1 (137–171), Ipl1 (26–39;45–59), and Dam1 (254–270;290–305) peptides with added C-terminal cysteines, were synthesized by the Tufts University Core Facility. […] Fluorescence polarization was measured at 25°C with an Envision plate reader (Perkin Elmer) equipped with a filter set optimized for fluorescence polarization of FITC, which has the same absorption and emission spectra as those of Bodipy FL. […] Fluorescence polarization was measured in triplicate. […] An equal volume of a buffer-matched solution containing 40 nM Bodipy-FL labelled peptide and 1 μM Ndc80c^dwarf was added to each of the dilutions, and fluorescence polarization was measured in triplicate. […]

[2] = biological target: Bodipy-FL Mps1(137–171) (S. cerevisiae); assay: fluorescence polarisation; direct titration: 2-fold serial dilutions of Ndc80c^dwarf (from 860 uM stock) added to 20 nM (final) Bodipy-FL peptide; 20 mM Hepes pH 7.2, 150 mM NaCl, 2 mM TCEP; 25 °C; triplicate
Ndc80c^dwarf [3] = biological target: T1, Ndc80c^dwarf (S. cerevisiae, UniProt P40460 1-691; Q04477 1-213; P40014 1-221); assay: FP
T1 chain 1: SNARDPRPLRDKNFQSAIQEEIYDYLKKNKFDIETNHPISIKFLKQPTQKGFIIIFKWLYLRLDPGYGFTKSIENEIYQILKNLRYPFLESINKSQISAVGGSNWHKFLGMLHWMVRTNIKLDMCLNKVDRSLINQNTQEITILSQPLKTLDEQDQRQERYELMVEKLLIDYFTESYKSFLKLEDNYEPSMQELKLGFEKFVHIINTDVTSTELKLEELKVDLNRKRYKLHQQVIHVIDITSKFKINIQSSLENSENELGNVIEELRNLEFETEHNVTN
T1 chain 2: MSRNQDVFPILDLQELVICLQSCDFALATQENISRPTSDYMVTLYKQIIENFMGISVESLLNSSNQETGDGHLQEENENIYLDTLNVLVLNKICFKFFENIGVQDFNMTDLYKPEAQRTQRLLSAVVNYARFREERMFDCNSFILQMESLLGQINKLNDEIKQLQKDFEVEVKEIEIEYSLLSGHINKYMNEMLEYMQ
T1 chain 3: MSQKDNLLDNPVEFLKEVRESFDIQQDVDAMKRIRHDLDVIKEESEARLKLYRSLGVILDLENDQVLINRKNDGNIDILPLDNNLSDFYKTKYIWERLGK
T1 chain 4: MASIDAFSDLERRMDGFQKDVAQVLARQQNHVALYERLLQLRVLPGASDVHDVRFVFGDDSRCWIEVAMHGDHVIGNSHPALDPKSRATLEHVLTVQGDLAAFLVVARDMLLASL

[4] = biological target: T2, Ndc80c^dwarf, P40460;Q04477;P40014; assay: fluorescence polarization competition; conditions: chain shown with the change; point at the highest competitor concentration (about 1e3 µM); 20 nM Bodipy-FL Mps1(137–171), 500 nM Ndc80c^dwarf; lower polarization = more displacement of the …; parent: est. 41; read off a plot
T2 chain 1: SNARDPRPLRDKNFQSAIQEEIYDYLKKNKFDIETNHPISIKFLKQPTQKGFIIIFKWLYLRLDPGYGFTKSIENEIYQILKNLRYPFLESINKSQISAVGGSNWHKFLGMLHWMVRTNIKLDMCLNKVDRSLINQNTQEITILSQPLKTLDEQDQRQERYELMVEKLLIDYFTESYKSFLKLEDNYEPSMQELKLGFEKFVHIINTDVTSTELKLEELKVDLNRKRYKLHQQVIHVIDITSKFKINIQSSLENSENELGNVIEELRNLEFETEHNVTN
T2 chain 2: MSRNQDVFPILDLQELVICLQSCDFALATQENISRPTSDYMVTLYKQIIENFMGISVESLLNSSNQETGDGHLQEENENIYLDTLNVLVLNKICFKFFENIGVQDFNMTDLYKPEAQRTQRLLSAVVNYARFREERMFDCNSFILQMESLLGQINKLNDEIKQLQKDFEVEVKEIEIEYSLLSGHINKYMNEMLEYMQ
T2 chain 3: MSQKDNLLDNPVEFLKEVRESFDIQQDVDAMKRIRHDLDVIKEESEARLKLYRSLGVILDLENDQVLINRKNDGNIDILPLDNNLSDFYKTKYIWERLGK
T2 chain 4: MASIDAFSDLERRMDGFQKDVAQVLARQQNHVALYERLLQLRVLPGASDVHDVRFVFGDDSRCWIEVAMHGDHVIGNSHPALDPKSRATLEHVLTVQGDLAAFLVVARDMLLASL

Ndc80c^dwarf [5] = biological target: T1, Ndc80c^dwarf; assay: fluorescence polarisation; competition: 2-fold serial dilutions of unlabeled peptide (2 mM stock) mixed with an equal volume giving 20 nM Bodipy-FL Mps1(137–171) and 500 nM Ndc80c^dwarf; 20 mM Tris pH 7.2, 100 mM NaCl, 2 mM TCEP; 25 °C; triplicate
Mps1 = biological target: T3, Mps1 (Saccharomyces cerevisiae (strain ATCC …, UniProt P54199)); assay: FP direct, Bodipy peptide, Ndc80c dwarf
T3 chain: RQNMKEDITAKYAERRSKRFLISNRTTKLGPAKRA

Ipl1 = biological target: T4, Ipl1 (Saccharomyces cerevisiae (strain ATCC …, UniProt P38991)); assay: FP direct, Bodipy peptide, Ndc80c dwarf
T4 chain: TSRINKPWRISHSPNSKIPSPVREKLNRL

Bodipy-FL Mps1(137–171) = biological target: T5, Bodipy-FL Mps1(137–171); assay: fluorescence polarization; conditions: chain shown with the change; 20 nM Bodipy-FL Mps1(137–171); Ndc80c^dwarf mutant titrated
T5 chain: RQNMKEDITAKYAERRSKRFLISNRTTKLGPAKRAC

TSRINKPWRISHSPNSKIPSPVREKLNRLC [Ipl1 (26–39;45–59)]
relative affinity of peptides for Ndc80c^dwarf (comparison in words) (Ndc80c^dwarf [1]): bound more weakly than those from Dam1 and Mps1

RRKSILHTIRNSIASGARISLGSGAARVVNGPVTC [Dam1 (254–270;290–305)]
relative affinity of peptides for Ndc80c^dwarf (comparison in words) (Ndc80c^dwarf [1]): nearly the same

Ndc80c^dwarf bearing the Nuf2 N128A mutation (from UniProt P40460 1-691; Q04477 1-213; P40014 1-221) (complex)
loss of affinity against wild-type Ndc80c^dwarf (logs) [2]: 2 logs

Ndc80c^dwarf bearing the Nuf2 F8A P9A mutations (from UniProt P40460 1-691; Q04477 1-213; P40014 1-221) (complex)
loss of affinity against wild-type Ndc80c^dwarf (logs) [2]: 2 logs

B1: Bodipy-FL Mps1(137–171) (peptide)
peptide: RQNMKEDITAKYAERRSKRFLISNRTTKLGPAKRAC(BODIPYFLEthylmaleimide)
Kd (Ndc80c^dwarf [3]): 0.28 µM

B2: Mps1 (137–171) peptide, unlabeled F156D; L157A; R170S (peptide)
chain: RQNMKEDITAKYAERRSKRDAISNRTTKLGPAKSAC
response [4]: 76 mP

B3: Mps1 F156D L157A peptide (137–171) (peptide)
peptide: RQNMKEDITAKYAERRSKRDAISNRTTKLGPAKRAC
rise of Ki against the wild-type Mps1 peptide (logs) (Ndc80c^dwarf [5]): 2 logs

B4: Mps1 R170S peptide (137–171) (peptide)
peptide: RQNMKEDITAKYAERRSKRFLISNRTTKLGPAKSAC
rise of Ki against the wild-type Mps1 peptide (logs) (Ndc80c^dwarf [5]): 2 logs

B5: Ndc80-Nuf2 (protein)
chain 1: MSRNQDVFPILDLQELVICLQSCDFALATQENISRPTSDYMVTLYKQIIENFMGISVESLLNSSNQETGDGHLQEENENIYLDTLNVLVLNKICFKFFENIGVQDFNMTDLYKPEAQRTQRLLSAVVNYARFREERMFDCNSFILQMESLLGQ
chain 2: RDPRPLRDKNFQSAIQEEIYDYLKKNKFDIETNHPISIKFLKQPTQKGFIIIFKWLYLRLDPGYGFTKSIENEIYQILKNLRYPFLESINKSQISAVGGSNWHKFLGMLHWMVRTNIKLDMCLNKVDRSLINQNTQEITILSQPLKTLDEQDQRQERYELMVEKLLIDYFTESYKSFLKLEDNYEPSMQELKLGFEKFVHIINTD
Kd (Mps1): 0.28 µM
Kd (Ipl1): 18.8 µM

B6: Mps1 R151D R152D R155D peptide (137–171) (peptide)
peptide: RQNMKEDITAKYAEDDSKDFLISNRTTKLGPAKRAC
rise of Ki against the wild-type Mps1 peptide (logs) (Ndc80c^dwarf [5]): 2 logs

B7: Ndc80c^dwarf, P40460;Q04477;P40014 Nuf2:N128A (protein)
chain 1: SNARDPRPLRDKNFQSAIQEEIYDYLKKNKFDIETNHPISIKFLKQPTQKGFIIIFKWLYLRLDPGYGFTKSIENEIYQILKNLRYPFLESINKSQISAVGGSNWHKFLGMLHWMVRTNIKLDMCLNKVDRSLINQNTQEITILSQPLKTLDEQDQRQERYELMVEKLLIDYFTESYKSFLKLEDNYEPSMQELKLGFEKFVHIINTDVTSTELKLEELKVDLNRKRYKLHQQVIHVIDITSKFKINIQSSLENSENELGNVIEELRNLEFETEHNVTN
chain 2: MSRNQDVFPILDLQELVICLQSCDFALATQENISRPTSDYMVTLYKQIIENFMGISVESLLNSSNQETGDGHLQEENENIYLDTLNVLVLNKICFKFFENIGVQDFNMTDLYKPEAQRTQRLLSAVVAYARFREERMFDCNSFILQMESLLGQINKLNDEIKQLQKDFEVEVKEIEIEYSLLSGHINKYMNEMLEYMQ
chain 3: MSQKDNLLDNPVEFLKEVRESFDIQQDVDAMKRIRHDLDVIKEESEARLKLYRSLGVILDLENDQVLINRKNDGNIDILPLDNNLSDFYKTKYIWERLGK
chain 4: MASIDAFSDLERRMDGFQKDVAQVLARQQNHVALYERLLQLRVLPGASDVHDVRFVFGDDSRCWIEVAMHGDHVIGNSHPALDPKSRATLEHVLTVQGDLAAFLVVARDMLLASL
Kd (Bodipy-FL Mps1(137–171)): 7.4 µM

B8: Ndc80c^dwarf, P40460;Q04477;P40014 Nuf2:F8A; Nuf2:P9A (protein)
chain 1: SNARDPRPLRDKNFQSAIQEEIYDYLKKNKFDIETNHPISIKFLKQPTQKGFIIIFKWLYLRLDPGYGFTKSIENEIYQILKNLRYPFLESINKSQISAVGGSNWHKFLGMLHWMVRTNIKLDMCLNKVDRSLINQNTQEITILSQPLKTLDEQDQRQERYELMVEKLLIDYFTESYKSFLKLEDNYEPSMQELKLGFEKFVHIINTDVTSTELKLEELKVDLNRKRYKLHQQVIHVIDITSKFKINIQSSLENSENELGNVIEELRNLEFETEHNVTN
chain 2: MSRNQDVAAILDLQELVICLQSCDFALATQENISRPTSDYMVTLYKQIIENFMGISVESLLNSSNQETGDGHLQEENENIYLDTLNVLVLNKICFKFFENIGVQDFNMTDLYKPEAQRTQRLLSAVVNYARFREERMFDCNSFILQMESLLGQINKLNDEIKQLQKDFEVEVKEIEIEYSLLSGHINKYMNEMLEYMQ
chain 3: MSQKDNLLDNPVEFLKEVRESFDIQQDVDAMKRIRHDLDVIKEESEARLKLYRSLGVILDLENDQVLINRKNDGNIDILPLDNNLSDFYKTKYIWERLGK
chain 4: MASIDAFSDLERRMDGFQKDVAQVLARQQNHVALYERLLQLRVLPGASDVHDVRFVFGDDSRCWIEVAMHGDHVIGNSHPALDPKSRATLEHVLTVQGDLAAFLVVARDMLLASL
Kd (Bodipy-FL Mps1(137–171)): 12.5 µM
